Assay [1] concerns TR4 Fusarium oxysporum f sp. cubense (Foc). The assay can be described thus: ARSS greenhouse assay of acclimated tissue culture banana plants. The class given is in vivo. The conditions noted are these: transgenic banana lines per payload, FIG. 15.
A further assay concerns Foc_TR4. The assay can be described thus: In vitro spore germination and mycelial growth assay. The class given is cell-based, Fusarium oxysporum f.sp. cubense Tropical Race 4. The conditions noted are these: Foc_TR4, in vitro fungal growth inhibition assay; read-out: IC50.

B1: Sm-AMP-D1: Sm-AMP-D1 anti-microbial peptide, tested as purified protein in vitro (protein)
chain: MAKTVLGIHVTFLTLLFAVILLNDVMYTPVEGKICERASGTWKGICIHSNDCNNQCVKWENAGSGSCHYQFPNYMCFCYFNC
In general, IC50 refers to the concentration that gives 50% inhibition. B1 gave a disease necrosis in assay [1] of 27%. Also, the IC50 in the assay on Foc_TR4 was 2.2 µM.

The values above are taken from patent US20240141372A1, “TRANSGENIC BANANA PLANTS HAVING INCREASED RESISTANCE TO FUSARIUM OXYSPORUM TROPICAL RACE 4 AND METHODS OF PRODUCING SAME” (Elo Life Systems, priority 2022, published 2024).
